The values that follow come from patent US20090041784A1 (Amgen, published 2009).

B1: antibody A-9 (antibody, V domains shown)
VH: QVQLVESGGGVVQPGRSLRLSCAASGFTFSSYGMHWVRQAPGKGLEWVAVMWYDGSNKDYVDSVKGRFTISRDNSKNTLYLQMNRLRAEDTAVYYCAREKDHYDILTGYNYYYGLDVWGQGTTVTVSS
VL: DIQMTQSPSSLSASVGDRVTITCRASQGIRNDLGWYQQKPGKAPKRLIYAASSLESGVPSRFSGSGSGTEFTLTISSVQPEDFVTYYCLQHNSNPLTFGGGTKVEIK
B2: antibody A-11 (antibody, V domains shown)
VH: QVQLVESGGGVVQPGRSLRLSCAASGSTFRSYDMHWVRQAPGKGLEWVAFISDDGSNKYYGDSVKGRLTISRDNSKNTLYLQMNSLRAEDTAVYYCARDQYDILTGYSSDAFDIWGQGTMVTVSS
VL: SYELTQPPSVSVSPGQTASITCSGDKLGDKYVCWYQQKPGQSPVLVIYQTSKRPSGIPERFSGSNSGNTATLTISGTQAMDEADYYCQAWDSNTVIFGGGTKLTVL
B3: antibody A-13 (antibody, V domains shown)
VH: QVQLVESGGGVVQPGRSLRLSCAASGSTFRSYDMHWVRQAPGKGLEWVAVISYDGSNKYYGDSVKGRLTISRDNSKNTLYLQMNSLRAEDTAVYYCARDQYDILTGYSSDAFDIWGQGTMVTVSS
VL: not shown
B4: antibody A-12 (antibody, V domains shown)
VH: QVQLVESGGGVVQPGRSLRLSCAASGSTFRSYDMHWVRQAPGKGLEWVAFISDDGSNKYYGDSVKGRLTISRDNSKNTLYLQMNSLRAEDTAVYYCARDQYDILTGYSSDAFDIWGQGTMVTVSS
VL: not shown
B5: antibody A-6 (antibody, V domains shown)
VH: QVQLVESGGGVVQPGRSLRLSCAASGFTFSSYGMHWVRQAPGKGLEWVAEIWNDGSNKYYADSVKGRFTISRDNPKNTLYLQMNSLRAEDTAVYYCAREPQYYDILTGYDNYYGMDVWGQGTTVTVSS
VL: EIVLTQSPGTLSLFPGERATLSCRASQSVSSNYLAWYQQKSGQAPRLLIYGASSRATGIPDRFSGSGSGTDFTLTISRLEPEDFAVYYCQQYGNSPFTFGPGTNVDIK
B6: antibody A-14 (antibody, V domains shown)
VH: QVQLVESGGGVVQPGRSLRLSCAASGFTFSNYGMHWVRQAPGKGLEWVAVIWYDGSNKYYADSVKGRFTISRDNSKNTLYLQMNSLRAEDTAVYYCARAYYDILTDYPQYDYYYGMDVWGQGTTVTVSS
VL: NFMLTQPHSVSESPGKTVTISCTRSSGSIVSNFVQWYQQRPGSSPTTVIYEDNQRPSGVPDRFSGSIDSSSNSASLTISGLKTEDEADYYCQSYDTSNQVFGGGTKLTVL
B7: antibody A-1 (antibody, V domains shown)
VH: QVQLVESGGGVVQPGRSLRLSCAASGITFSSYGMHWVRQAPGKGLEWVASIWYDGSNKYYVDSVKGRFTIFRDNSKKTLYLQMNRLRAEDTAVYYCARLGGGFDYWGQGTLVTVSS
VL: DIVLTQTPLSLPVTPGEPASISCRSSQSLLDRDDGDTYLDWYLQKPGQSPQLLIYTLSYRASGVPDRFSGSGSGTDFSLKISRVEAEDVGVYYCMQRIEFPFTFGPGTKVDIK
B8: antibody A-2 (antibody, V domains shown)
VH: QVQLVESGGGVVQPGRSLRLSCAASGITFSSYGMHWVRQGPGKGLEWVAFIWYDGSEKYYVDSVKGRFTISRDNSKNTLYLQMNSLRAEDTAVYYCARMGGGFDYWGQGTLVTVSS
VL: DIVMTQTPLSLPVTPGEPASISCRSSQSLLDSADGDTYLDWYLQKPGQSPQLLIYTLSYRASGVPDRFSGSGSDTDFSLKISRVEAEDVGVYYCMQRIEFPFTFGPGTKVDIK
B9: antibody A-8 (antibody, V domains shown)
VH: QVQLAESGGGVVQPGRSLRLSCTASGITFSSYGMHWVRQAPGKGLEWVAGIWYDGRNKYYVDSVKGRFTISRDNSKKTLYLQMNSLRAEDTAVYYCARLAVAFDYWGQGTLVTVSS
VL: DIVMTQTPLSLPVTPGEPASISCRSTQSLLDSDDGDTYLDWYLQKPGQSPQLLIYTLSYRASGVPDRFSGSGSGTDFTLKISRVEAEDVGVYYCMQRIEFPFTFGPGTKVDIK
B10: antibody A-22 (antibody, V domains shown)
VH: QVQLVESGGGVVQPGRSLRLSCAASGITFSSYGMHWVRQAPGKGLEWVASIWYDGSNKYYVDSVKGRFTIFRDNSKKTLYLQMNRLRAEDTAVYYCARLGGGFDYWGQGTLVTVSS
VL: DIVLTQTPLSLPVTPGEPASISCRSSQSLLDRDDGDTYLDWYLQKPGQSPQLLIYTLSYRASGVPDRFSGSGSGTDFSLKISRVEAEDVGVYYCMQRIEFPFTFGPGTKVDIK
B11: antibody A-15 (antibody, V domains shown)
VH: QVQLVESGGGVVQPGKSLRLSCAVSGFIFSSYGMHWVRQAPGKGLEWVALISFDGSNKYYADSVKGRFTISRDNSKNTLYLQMNSLRAEDTAVYYCARDGYYDILTGYEDDAFDIWGQGTMVTVSS
VL: not shown
B12: antibody A-5 (antibody, V domains shown)
VH: QVQLVESGGGVVQPGRSLRLSCAASGFTFSTYGMHWVRQAPGKGLEWVAVISDDGSHKYSADSVKGRFTISRDNSKNTLYLQMNSLRTEDSAVYYCAREETYYDILTGYHHYYGMDVWGQGTTVTVSS
VL: DIQMTQSPSSLSAFVGDRVTITCRASQGIRNDLGWYQQKPGKAPKRLLYAASSLQSGVPSRFSGSGSGSEFTLTISSLQPEDFATYYCLQHNSDPLTFGQGTRLEIK
B13: antibody A-7 (antibody, V domains shown)
VH: QVQLVESGGGVVQPGRSLRLSCAASGFTFSSYDMHWVRQAPGKGLEWVAVISHDGSDKYYADSVKGRFTISRDNSKNTLYLQMSSLRAEDTAVYYCAREKPYYDILTGYFYYYGMDVWGQGTTVTVSS
VL: DIQMTQSPSSLSASVGDRVTVTCRASQDIRNDFGWYQQKPGKAPKRLIYAASSLQSGVPSRFSGSGSGTEFTLTISSLQPEDFATYYCLQQNSYPLTFGGGTKVEIK
B14: antibody A-20 (antibody, V domains shown)
VH: EVQLVESGGDLVQPGGSLRLSCAASGFTFSGYTLNWVRQAPGKGLEWVSNINSRSSLIYYTDSVKGRFTISRDNAKNSLYLQMNSLRDEDTAVYFCARDQYNWNYYYGMDVWGQGTTVTVSS
VL: DIQMTQSPSSLSASVGDRVTITCRASQGIRNDLGWYQQKPGKAPKRLIYAASSLQSGVPSRFSGSGSGTEFTLTISNLQPEDFATYYCLQHNSYPRSFGQGTKLEIK
notes: Human antibody from XenoMouse hybridoma; also called L20H20
B15: antibody A-16 (antibody, V domains shown)
VH: QVQLVQSGAEVKKPGASVKVSCKASGYTFTGYYLHWVRQAPGQGLEWMGWIIPDSGGTKYAQKFQGRVTMTRDTSISTAYLELSRLRSDDTAVYYCAREGFHYDILTGSYFYYYGMDVWGQGTTVTVSS
VL: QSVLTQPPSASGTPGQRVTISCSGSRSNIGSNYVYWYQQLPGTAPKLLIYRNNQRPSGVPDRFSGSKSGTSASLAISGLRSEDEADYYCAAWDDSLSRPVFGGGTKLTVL
notes: Human antibody from XenoMouse hybridoma (IgG2 or IgG4 strains), purified from conditioned medium; also called L16H16
B16: antibody A-17 (antibody, V domains shown)
VH: QVQLVQSGAEVKKPGASVKVSCKASGYTFTSYGISWARQAPGQGLEWMGWIGVYNGHTKYAQKFQGRVTMTTDTSTSTAYMELRSLRSDDTAIFYCARRVAVAGYFDYWGQGTLVTVSS
VL: QSVLTQPPSVSGAPGQRVTISCTGSSSNIGAGYAVHWYQQLPGTAPKLLIYDNNNRPSGVPDRFSGSKSGTSASLAITGLQAEDEADYYCQSYDSSLSAIFGGGTKLTVL
notes: Human antibody from XenoMouse hybridoma (IgG2 or IgG4 strains), purified from conditioned medium; also called L17H17
B17: antibody A-23 (antibody, V domains shown)
VH: EVRLVESGGGLVQPGGSLRLSCTASGFPFNRYAMNWVRQAPGKGLEWVSYIGSSSSAIYYADSVKGRFTISRDNAKNSLYLQMNSLRDEDTAVYYCARYSSGWSPLFDYWGQGTLVTVSS
VL: DIQMTQSPSSVSASVGDRVTITCRASQGISSWLAWYQQKPGKAPKLLIYTASTLQSGVPSRFSGSGSGTDFTLTISSLQPEDFATYYCQQSNSFPLTFGGGTKVEIK
notes: Human antibody from XenoMouse hybridoma (IgG2 or IgG4 strains), purified from conditioned medium; also called L23H23

One experiment addresses T1, human glucagon receptor (human, UniProt P47871 26-477). As to the kind of experiment: cell-based or functional assay.
On to B1, for which the “IC50 of inhibition of glucagon-induced cAMP production (HTRF, CHO K1 cells expressing the receptor)” value was 7.4 nM.

The target in another experiment is T2, cynomolgus glucagon receptor (cynomolgus (Macaca fascicularis), UniProt P47871 26-477 (human entry)).
T2 chain: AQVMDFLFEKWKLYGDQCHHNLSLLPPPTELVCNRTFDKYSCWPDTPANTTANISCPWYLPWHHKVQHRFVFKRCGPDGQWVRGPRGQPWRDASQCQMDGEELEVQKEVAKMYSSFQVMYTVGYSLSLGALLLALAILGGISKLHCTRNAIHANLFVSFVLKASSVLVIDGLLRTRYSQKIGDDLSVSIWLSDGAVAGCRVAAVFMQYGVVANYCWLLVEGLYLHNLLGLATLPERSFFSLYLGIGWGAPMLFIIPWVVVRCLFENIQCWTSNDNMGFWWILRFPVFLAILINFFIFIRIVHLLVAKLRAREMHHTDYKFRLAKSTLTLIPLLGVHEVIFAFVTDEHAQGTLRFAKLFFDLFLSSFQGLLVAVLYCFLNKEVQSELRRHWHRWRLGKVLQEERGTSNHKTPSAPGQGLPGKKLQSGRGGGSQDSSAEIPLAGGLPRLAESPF
In words: cell-based or functional assay.
Consider B1, for which the “IC50 of inhibition of glucagon-induced cAMP production (HTRF, CHO K1 cells expressing the receptor)” value came out at 26.6 nM.

The next experiment has as its target mouse glucagon receptor (mouse (Mus musculus), UniProt Q61606 27-485). In words: cell-based or functional assay.
With B1, the “IC50 of inhibition of glucagon-induced cAMP production (HTRF, CHO K1 cells expressing the receptor)” value was found to be 4.1 nM.

The target of another experiment is rat glucagon receptor (rat (Rattus norvegicus), UniProt P30082 27-485). In words: cell-based or functional assay.
On to B1, for which the “IC50 of inhibition of glucagon-induced cAMP production (HTRF, CHO K1 cells expressing the receptor)” value turned out to be 9.9 nM.

In a further experiment the target is T1, human glucagon receptor. As to the kind of experiment: cell-based or functional assay. This is another data set of the same source.
Turning to B2, the “IC50 of inhibition of glucagon-induced cAMP production (HTRF, CHO K1 cells expressing the receptor)” value was determined as 16.7 nM. Still for that read-out and setting: next, B3: 72.6 nM; B4: 21.3 nM. B5: the “IC50 of inhibition of glucagon-induced cAMP production (HTRF, CHO K1 cells expressing the receptor)” value amounted to 32.2 nM.

With B6, the “IC50 of inhibition of glucagon-induced cAMP production (HTRF, CHO K1 cells expressing the receptor)” value came out at 458 nM. Regarding B7, the “IC50 of inhibition of glucagon-induced cAMP production (HTRF, CHO K1 cells expressing the receptor)” value stood at 15 nM.

On to B8, for which the “IC50 of inhibition of glucagon-induced cAMP production (HTRF, CHO K1 cells expressing the receptor)” value was found to be 10.1 nM. For B9, the “IC50 of inhibition of glucagon-induced cAMP production (HTRF, CHO K1 cells expressing the receptor)” value was 10.4 nM. As for B10, the “IC50 of inhibition of glucagon-induced cAMP production (HTRF, CHO K1 cells expressing the receptor)” value amounted to 7.2 nM. The same measure, in the same setting: next, B11: 11.3 nM. On the same count and under the same terms, next, B12: 13.3 nM; B13: 8.8 nM.

The next experiment deals with T1, human glucagon receptor. In words: competition with 1 nM Alexa-labeled A-3 for human GCGR on CHO cells, FMAT.
From the text: Several of the antibodies of the present invention were binned using a competition binding assay to determine what antibodies cross-competed for binding with a labeled reference anti-GCGR antibody.
In the case of B14, the binding result was “binds”. Same read-out and setting: next, B15: “binds”; B16: “binds”.

B17: the binding result is “binds”.
